Test results: patent US10287340B2, “Anti-HIV domain antibodies and method of making and using same” (priority 2008, dated 2019)
Entries after “also recorded” stand apart in the source; their conditions may differ. Read-outs that look alike come from different tables or passages of the source.

Legend:
gp120Bal = experiment: ELISA binding to gp120 alone; parameters: species or system HIV-1; conditions: without CD4
[1] = Size exclusion chromatography, oligomerization; conditions: Superdex75, PBS
BSA = BSA (Bos taurus, UniProt P02769); experiment: Binding ELISA to BSA (unrelated antigen)
Chain of BSA (P02769 25-607): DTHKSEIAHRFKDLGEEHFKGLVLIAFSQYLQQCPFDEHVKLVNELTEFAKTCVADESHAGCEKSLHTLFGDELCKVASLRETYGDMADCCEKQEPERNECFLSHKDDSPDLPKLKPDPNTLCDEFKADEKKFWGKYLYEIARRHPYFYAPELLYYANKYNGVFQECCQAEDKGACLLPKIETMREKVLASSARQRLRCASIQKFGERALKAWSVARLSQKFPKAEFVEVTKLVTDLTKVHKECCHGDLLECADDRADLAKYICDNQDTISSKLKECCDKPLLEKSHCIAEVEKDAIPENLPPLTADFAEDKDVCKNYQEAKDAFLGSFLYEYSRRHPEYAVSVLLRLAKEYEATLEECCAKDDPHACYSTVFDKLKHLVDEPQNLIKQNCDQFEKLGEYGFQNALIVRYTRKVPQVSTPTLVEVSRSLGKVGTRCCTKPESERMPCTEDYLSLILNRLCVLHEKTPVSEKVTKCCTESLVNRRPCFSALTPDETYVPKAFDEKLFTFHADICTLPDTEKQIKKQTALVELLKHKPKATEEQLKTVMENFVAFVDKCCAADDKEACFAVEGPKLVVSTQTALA

[2] = test system: Viruses pseudotyped with HIV-1 Envs; experiment: Pseudovirus neutralization assay; assay type: cell-based; conditions: for neutralizing activity compared to m36: side by side in the same experiment
soluble CD4 (sCD4) = soluble CD4 (sCD4) (Homo sapiens, UniProt P01730); experiment: ELISA binding to CD4 alone
[3] = test system: gp140 from a clade C isolate GXC-44 (gp140GXC-44); experiment: Binding ELISA to gp140GXC-44; parameters: species or system HIV-1
[4] = Storage of VH protein solutions at 4° C., precipitation; assay type: physicochemical; conditions: stored at 4° C. for 4 weeks
gp120Bal-CD4 [5] = experiment: Competition ELISA on gp120Bal-CD4; assay type: binding, HIV-1
Method: (§1) Antigens were coated and blocked as described above. […] Mixtures were subsequently added to each well and incubated. Bound m36 was detected and the assay was developed as described above.

gp140GXC-44 = experiment: Competition ELISA on gp140GXC-44; assay type: binding, HIV-1; conditions: in the absence of CD4
Method: as §1

[6] = biological target: serum albumin from bovine (BSA) (Bos taurus, UniProt P02769); experiment: Binding of m36SAbp to bovine serum albumin; conditions: data not shown
Chain of serum albumin from bovine (BSA) (P02769 25-607): as above

[7] = biological target: serum albumin from mouse (MSA) (Mus musculus, UniProt P07724); experiment: Binding of m36SAbp to mouse serum albumin; conditions: data not shown
Chain of serum albumin from mouse (MSA) (P07724 25-608): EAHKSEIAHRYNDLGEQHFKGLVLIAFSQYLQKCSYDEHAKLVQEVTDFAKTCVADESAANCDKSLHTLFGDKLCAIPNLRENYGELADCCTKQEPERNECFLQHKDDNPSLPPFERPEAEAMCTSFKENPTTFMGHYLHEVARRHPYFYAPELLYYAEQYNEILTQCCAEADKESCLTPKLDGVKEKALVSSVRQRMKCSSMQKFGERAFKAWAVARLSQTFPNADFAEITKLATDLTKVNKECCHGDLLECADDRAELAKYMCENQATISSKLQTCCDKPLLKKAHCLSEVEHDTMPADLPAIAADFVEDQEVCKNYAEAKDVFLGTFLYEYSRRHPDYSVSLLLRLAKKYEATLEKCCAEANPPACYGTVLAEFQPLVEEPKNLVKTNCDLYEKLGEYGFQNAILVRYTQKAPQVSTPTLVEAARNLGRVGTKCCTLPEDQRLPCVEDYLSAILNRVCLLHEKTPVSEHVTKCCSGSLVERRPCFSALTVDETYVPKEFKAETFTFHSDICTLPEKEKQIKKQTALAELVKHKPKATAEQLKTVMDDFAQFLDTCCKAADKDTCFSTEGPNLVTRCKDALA

[8] = biological target: serum albumin from human (HSA) (Homo sapiens, UniProt P02768); experiment: Binding of m36SAbp to human serum albumin; conditions: data not shown
gp120Bal-CD4 [9] = experiment: Binding ELISA to gp120Bal-CD4 (Example 3); parameters: species or system HIV-1

Chain of tethered gp140 from 89.6 (Q73372 32-496 limits assumed): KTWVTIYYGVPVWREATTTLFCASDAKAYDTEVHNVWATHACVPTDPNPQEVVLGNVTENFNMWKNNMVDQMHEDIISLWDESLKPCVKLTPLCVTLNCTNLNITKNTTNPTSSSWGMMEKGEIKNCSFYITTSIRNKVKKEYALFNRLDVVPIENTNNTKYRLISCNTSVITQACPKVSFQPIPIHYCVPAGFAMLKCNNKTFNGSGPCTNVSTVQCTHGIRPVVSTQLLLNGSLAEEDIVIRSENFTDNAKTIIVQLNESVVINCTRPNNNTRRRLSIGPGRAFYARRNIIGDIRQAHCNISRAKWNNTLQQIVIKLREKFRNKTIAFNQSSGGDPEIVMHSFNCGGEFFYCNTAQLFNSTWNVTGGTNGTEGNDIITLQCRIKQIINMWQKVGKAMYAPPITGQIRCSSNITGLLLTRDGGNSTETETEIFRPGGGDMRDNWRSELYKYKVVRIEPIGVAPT

B1: m36: human VH domain antibody (dAb) on m0 scaffold targeting CD4i epitope of HIV-1 gp120; CDR3 AIYGGNSGGEY (protein)
VHH: QVQLVQSGGGLVQPGGSLRLSCAASAFDFSDYEMSWVRQAPGKGLEWIGEINDSGNTIYNPSLKSRVTISRDNSKNTLYLQMNTLRAEDTAIYYCAIYGGNSGGEYWGQGTLVTVSS
- binding to gp120 alone (gp120Bal): not to gp120Bal or to soluble CD4 (sCD4) and BSA
- oligomeric state [1]: monomeric
- binding to BSA (BSA): not to gp120Bal or to soluble CD4 (sCD4) and BSA
- inhibition of the isolate from clade C ([2]; at 667 nM): 100%
- isolates completely (100%) inhibited ([2]; at 667 nM, 7 clade B isolates in panel): 4 out of 7
- neutralization of the clade E isolate GXE ([2]; at concentrations up to 667 nM): did not neutralize
- potency compared to peptide C34 ([2]; average over panel): on average more potent
- neutralization potency compared to scFv m9 ([2]; average, six clade B, one clade C, one clade A isolate, IC50s on molar basis): two-fold higher
- cross-reactivity against HIV-1 isolates ([2]; clade A, B, C, and D): cross-reactive
- neutralization activity compared to scFv m9 ([2]; clade B isolate 89.6 and clade-D isolate Z2Z6): lower neutralization activity
- IC90 ([2]; clade C isolate GXC-44 and clade B isolate NL4-3): very low IC90s
- binding to CD4 alone (soluble CD4 (sCD4)): not to gp120Bal or to soluble CD4 (sCD4) and BSA
- binding to CD4 alone (soluble CD4 (sCD4); listed as b5): neither gp120 nor CD4 alone
- binding to gp140GXC-44 ([3]; gp140GXC-44 alone): did bind although weaker
- binding to gp140GXC-44 ([3]; in the presence of sCD4): bound
- precipitation on storage [4]: no precipitation
- competition with CD4bs antibody m14 for binding to gp120Bal-CD4 (gp120Bal-CD4 [5]): not with the CD4 binding site (CD4bs) antibody m14
- competition with CD4i antibody m16 for binding to gp120Bal-CD4 (gp120Bal-CD4 [5]): competed
- binding to tethered gp140 from 89.6 (tethered gp140 from 89.6; after gp140 bound to CD4): enhanced
- binding to tethered gp140 from 89.6 (tethered gp140 from 89.6; without complexation with CD4): bound
- competition with m14 for binding to gp140GXC-44 (gp140GXC-44): competed

B2: m36SAbp: m36 fused to a serum albumin binding peptide (SAbp), MW~18 kDa (protein)
chain: QVQLVQSGGGLVQPGGSLRLSCAASAFDFSDYEMSWVRQAPGKGLEWIGEINDSGNTIYNPSLKSRVTISRDNSKNTLYLQMNTLRAEDTAIYYCAIYGGNSGGEYWGQGTLVTVSSQRHPEDICLPRWGCLWGDDD
modifications: left off: small tags and cut ends
- neutralizing activity compared to m36 [2]: slight but not significant decrease; also recorded: about the same neutralizing activity
- binding to serum albumin [6]: binds
- binding to serum albumin [7]: binds
- binding to serum albumin [8]: binds
- binding to gp120Bal-CD4 compared to m36 (gp120Bal-CD4 [9]): comparable to that of m36

B3: m36CH3: m36 fused to human IgG1 CH3 domain without linker, MW~60 kDa (protein)
VHH: B1 VHH
modifications: left off: a dimerising Fc or GST; small tags and cut ends
notes: m36 fused to human IgG1 CH3 domain without linker, MW~60 kDa
- isolates with loss of neutralization compared to m36 ([2]; 10 isolates): 7 of 10
- IC50s compared to the corresponding ones for m36 ([2]; IIIB, 89.6 and NL4-3): significantly higher
- neutralizing activity compared to m36 [2]: significantly weaker
- binding to gp120Bal-CD4 compared to m36 (gp120Bal-CD4 [9]): comparable to that of m36

B4: m36b0Fc: m36 fused to human IgG1 Fc without peptide linker, MW~80 kDa (protein)
VHH: B1 VHH
modifications: left off: a dimerising Fc or GST
notes: m36 fused to human IgG1 Fc without peptide linker, MW~80 kDa
- inhibitory activity against 89.6 and NL4-3 [2]: decreased inhibitory activity
- neutralization of TCLA isolate IIIB [2]: lost neutralization
- binding to gp120Bal-CD4 compared to m36 (gp120Bal-CD4 [9]): bound slightly better

B5: m36c2Fc: m36 joined with human IgG1 Fc by a camel IgG2 hinge (protein)
chain: QVQLVQSGGGLVQPGGSLRLSCAASAFDFSDYEMSWVRQAPGKGLEWIGEINDSGNTIYNPSLKSRVTISRDNSKNTLYLQMNTLRAEDTAIYYCAIYGGNSGGEYWGQGTLVTVSSEPKIPQPQPKPQPQPQPQPKPQPKPEPECTCPKCP
modifications: left off: a dimerising Fc or GST
notes: m36 joined with human IgG1 Fc by a camel IgG2 hinge
- number of isolates neutralized [2]: five isolates
- potency against 89.6 compared to m36 [2]: higher than that of m36
- potency compared to m36h1Fc [2]: did not exhibit higher potency
- EC50 (gp120Bal-CD4 [9]): ~500 pM

B6: m36h3Fc: m36 joined with human IgG1 Fc by a human IgG3 hinge (protein)
chain: QVQLVQSGGGLVQPGGSLRLSCAASAFDFSDYEMSWVRQAPGKGLEWIGEINDSGNTIYNPSLKSRVTISRDNSKNTLYLQMNTLRAEDTAIYYCAIYGGNSGGEYWGQGTLVTVSSELKTPLGDTTHTCPRCPEPKSCDTPPPCPRCP
modifications: left off: a dimerising Fc or GST
notes: m36 joined with human IgG1 Fc by a human IgG3 hinge
- number of isolates neutralized [2]: five isolates
- potency against 89.6 compared to m36 [2]: higher than that of m36
- potency compared to m36h1Fc [2]: did not exhibit higher potency
- EC50 (gp120Bal-CD4 [9]): ~500 pM
